Source: the DeepSol protein solubility set

assay: soluble on expression in E. coli; label from the status in PepcDB or PDB records

Q: For “MARSIDYGNLMHRAMRGLIQSVLEDVAEHGLPGAHHFFITFDTTHPDVAMADWLRARYPQEMTVVIQHWYENLSADDHGFSVTLNFGNQPEPLVIPFDAVRTFVDPSVEFGLRFETHEEDEEEETGGDEDPDGDDEPPRHDAQVVSLDKFRKAAALEHHHHHH”, which “soluble on expression in E. coli” value is on record?
A: soluble

Q: Which “soluble on expression in E. coli” value does the source give for “MGSDKIHHHHHHMANKIKVLLTGAGSTLGREILAQLLTMRKVFEISVLDIKRGHTMAFFEKYKKEIHIFYGDCSVQDNTVEACKGQDFVIHCQSLEKANADKRLRLAEDVNTMGTRYIIENLERFSPGAYLLYISTVGVYGDRLKAPMISADNMTCPSMGDYDALTKLQAEKLVQESSLEWTIYRPGIILGHDSSLLNSSVFCMPLATRFETVHIRDLASACVKAYDHKASLWGRTYNVGGGEACRIVYSDYIRRLFKLLGLGYPEFPDRAFATRNRFGGYFADGDALEAILHFRRHTIEDYFKELAAQQPILKKLANKIFVGVQRKSLEGKSAPLRAIKENDRAKKKYYF” here?
A: not soluble

Q: Which “soluble on expression in E. coli” value does the source give for “MSLELVSFVKSHIDQAVYFSTITSNPIEFNLPESLSLDTTDIENDIKTSCDEIFYSTGSYIPPMLNTLEQHLNLRIEYFNNLIEFTKINFNYKISPTVKLYLIEKISILKCCLALFKYISDKAILSNIWRDLVLNSFNDSSLEEFVLGKLDEFPRLFTIFLNDLSAKIVGFNDVEEKVKIVDLLITCVYDAVLENCEKSIRYDALQLDPLELDNKPMWFTNLTNIKAMNNIFFSFIFPDNDLSVENKQRLLTVVKLLYYVINQNMIWHKSMKQIETEEYKEVEALYNDNHANWIHVLCNIGVHEEALQICEFYHDLGGLVEILEKLDFEISRELYDQYFKMFGYEFATILFEYYINAKDLKALFFKFPNHHDLLNKFLLSSPPKYYKYAWIQEIIDNDYRKASDILTTLSVGEAGDGCEISERQLHLNIAKLSGLVDENFDANQMIEIQRDIDTIDHQTRIKKLLEEDPTGISMNQAFANNEFGEKFQETKYCIQNDKSINIKYIIDMLSMMDSVENLYEALKLTCIYRHSLGYEVSKYFQQSIWRRCIIEESKDGVIQLEGENSKIYQLLVKYFEGKLYEYDCKLPFVSFLMDRIGISMNFLSIIYGNDNNVLVSISDSIEREYHDLIRIGDTLESQLSTIIGSANEGHHHHHH” here?
A: not soluble

Q: Which “soluble on expression in E. coli” value does the source give for “MSLTQSSKLIAVIVANIDDYFSTELFKGISSILESRGYIGVLFDANADIEREKTLLRAIGSRGFDGLILQSFSNPQTVQEILHQQMPVVSVDREMDACPWPQVVTDNFEAAKAATTAFRQQGYQHVVVLTSELELSRTRQERYRGILAAAQDVDVLEVSESSYNHSEVHQRLTQLITQNDQKTVAFALKERWLLEFFPNLIISGLIDNQTVTATGFADTDFIRRMEPKLTLITQNPFLMGASSAEIMLRQLAGEKVAPEKMVIPAKLQEGHHHHHH” here?
A: soluble

Q: Which “soluble on expression in E. coli” value does the source give for “MFGKYKVSVIIPAYNEEKRIGNVLARIPDFVDEVIVIDDGSSDATYEVAKRYTDKAIRLNKNMGKGAALREGLRHASGDIIVFMDADGQHNPKEIPKLLEPIIKGKADFVIGKRIIKTGKRPLPRKLSNFITTTLIRLKTKQRIEDSQSGFRAIRREFVPEITSDRYEVETEVLIKAVKKGARITEVPVSTRYDLKTGKFRVEDIIRFLIALIKSLEHHHHHH” here?
A: not soluble

Q: For “MLDNRPIGVFDSGIGGLTIVKNLMSILPNEDIIYFGDIARIPYGTKSRATIQKFAAQTAKFLIDQEVKAIIIACNTISAIAKDIVQEIAKAIPVIDVITAGVSLVDNLNTVGVIATPATINSNAYALQIHKKNPNIEVYSNPCGLFVSMIEEGFVSGHIVELVAKEYLSYFHDKNIQALILGCTHYPIIKESIAKILDVKLIDPSLQASKMLYSLLFENKLLNTTKSNPEYRFYVTDIPLKFRSVGEMFLQTEMQHLEIVSLDSY”, which “soluble on expression in E. coli” value is on record?
A: not soluble

Q: For “MGSDKIHHHHHHMINYHPDQHLLSLHAKGELPLSMSIAISAHAELCPHCQQQLDQMTIALSEQQFESAVKTQSVDTNDNHQLDALLEQLLNSTLDTLEIEQASTIDTIEDNSVSIKGQHYPLPKVFRKQINASWQGIGKVSRLRLDTGEPQARASLLHIAANGEIPEHTHKGAELTLLLAGEFSDCYNTYKPGDFMLLDKEHQHSPKTLEGCLCYTIVDAPLYFTKGFSKLLNPIGDLLY”, which “soluble on expression in E. coli” value is on record?
A: not soluble

Q: For “ARIMKAIFVLNAAPKDNTWYAGGKLGWSQYHDTGFYGNGFQNNNGPTRNDQLGAGAFGGYQVNPYLGFEMGYDWLGRMAYKGSVDNGAFKAQGVQLTAKLGYPITDDLDIYTRLGGMVWRADSKGNYASTGVSRSEHDTGVSPVFAGGVEWAVTRDIATRLEYQWVNNIGDAGTVGTRPDNGMLSLGVSYRFGQEDAAPVVAPAPAPAPEHHHHHH”, which “soluble on expression in E. coli” value is on record?
A: soluble

Q: With “KLKPFNDEKTAKIAEEVQQFYESNATISLNEYLENVGELGYELYLTDGAEKSTYYGGAFRKKDLPDKTIKQVLDGETYHGIDSFDTGIFITGFFDNDVRNTIGVPVQADGKQLALFIRQDPEKQFGELRIF” as the sequence, how does the “soluble on expression in E. coli” value read?
A: soluble

Q: For “MGWPVISGDYIVGDPKSPVAVVTLASDYQSLNLKNYAICGTCFTENFGIEKVIVNVLSNPRISCLVVCGQESDHFAGQSLLALAENGVSAFGGSKRIIGSEGVIPYLDDIPATAISRFLREIEVIDLVGTTDPAVIQQAIDSCSGKERGEAPELSMPEINEHSWKKYEPEVKKNIMSKIKK”, which “soluble on expression in E. coli” value is on record?
A: not soluble

Q: For “GPGSMGRASKDKRDIYYRKAKEEGYRARSAYKLLQIHEEFNILDPAEIRTGAVDLCAAPGSWSQVLAQHFKMISANLTAASEGDSLPAQTPRVVAVDLQEMAPIDGVTLLQGDITSEVTAREIIRLLNAPTSTGVVRTDDEQQQPQPASSSFSSSAPSPALGASPRKADIVLCDGAPDVTGMHELDEYLQHHLLLAALHITTFVLRAGGCFLTKIFRGPNTAFLVAKSQLFFQQVRVVKPKSSRNASMESFLLCQGFRMPLGYVPRFVGAAAPAAASSATTGCSRGAASASAGCGSRVEADNEEGVKGERSETAIGSGGPLRASGFTPEAPLYCYDTTASFSHASDGGAAAAATVHDVAHHNQRTSCTLADGVLAPFLSCGDLSGFDADMCYDRDEDADVLEPVQPPLQAPYLAAAAASPSQLAGVADGRDTEADASQKKKIRVESPTAIAGRDSSTGGEEQQ”, which “soluble on expression in E. coli” value is on record?
A: not soluble

Q: Which “soluble on expression in E. coli” value does the source give for “MSLQNTVPSETPSPATPSPTSTVNLSDVSSDYWARPFIQAMADNNVIAGFPDGSFRPNQAVTRAEFAALIQKAFPNQNRVRQLSAGGFRDVPAGYWAISPIQYAYETGFLAGYPGNVFSPNQQIPKVQAIVAMTSGLGLTASNTGASTDLSTYYTDASSIPQYAIASVTTATQSNIVVNYPDVKQMNPQQPLTRAEVAALLYQALAKQGRVQPIASNLPASQYIVGGTEGHHHHHH” here?
A: soluble

Q: Which “soluble on expression in E. coli” value does the source give for “GPGSMSHSSLKRAPEITPQAATDKDSILCRSAHAKPLSFTTAPRDSAMVKLDVTLLRFMEDEDFRVLTALEMAMRNHDVAPTALVERIAQLPHGGCRKRLNNLLKHKMIHHENTMYDGYAMKYGAYDYLALRTLSKRGTCTGVGHRIGCGKESDIILVRDEAGHECVLKLQRLGRCSFRSVARNRDYKGNGRARHGESWFYLSRLASQKEYSFMKMLYDEGFPVPKPIDQNRHALLMELVPGTLLNNITELGDASKVYRRALELMVKLAESGLIHGDFNEFNLMITDDQRVIMIDFPQMISINHPNASELFDRDVQNLANFFHRRFKVDTTWFPSLEKDVVRKNELDKQVYASGHFTRKQQEDLERLMLEGFQRGEKSDDEAGSQARDSDASDDDGDENALQRSDIGNADVDAGVAGKFMTIPGFARGGESDEEREDSSDDDASEGRLLDEAMGAARERRQGEFYAHNADRNANFFPDGKINEDHVKHQIRKSIRRKDNHDFNRHLHRNVQKGRQKQKIQRQLKSSNGGGFFD” here?
A: not soluble

Q: With “MNGNHSAPAIAIAVIDGCDGLWREVLLGIEEEGIPFRLQHHPAGEVVDSAWQAARSSPLLVGIACDRHMLVVHYKNLPASAPLFTLMHHQDSQAHRNTGNNAARLVKGIPFRDLNSEATGEQQDE” as the sequence, how does the “soluble on expression in E. coli” value read?
A: soluble

Q: With “GPGSMTELVPPEAIRFANGEPLCAYHECYRCFDGRDILFRLVNVEKKQWFFYNDTADTIAHVRAVFYPGSVIRPLQRADMHVIPGPTGVADETCSIEVTLDIQPGFTESFIEGEHKGFHLEFRTETAPTKEVVFEYRRPMVPYDKIYRCFKNGNGLLFRLVDERVRQWFFYNDTRDLMMKVSVTFANSAEVRPLGCTALGAPHADTAPESVVYTLLIAPGCTEPFIEGNPVTYTLEFAAEPVDAPVTPVLEEPVQYLHGSPDVAVIPHQTHVFKCFKEHGNGLLFRVVDDVNTIWAFYNDTPDYVMTANMRYPSTSDIRLAPGVQVIADSEREGGFVAAVEVLPLATVPFLVGSPEQYELAFAATPVAPLTPSPTTSPEPSSPPQLADAADAAATVPPALPVPEEAPVYCNSGPDLTVMPNIDEVYKCFKDYGNGLVFRLVDKVQRRWAFYNDTTDIVALVRVQFSPGAHIQPLGHTVLGCDLESGSVLHELRVNPLETALFVEGDVDIFTTKFVAEEIQT” as the sequence, how does the “soluble on expression in E. coli” value read?
A: soluble

Q: With “MGSDKIHHHHHHMNPNIAKISSLLSDPSRSSILLSLMDGRIHPAGELAYLANIKPQTASFHLNKLLEAKLISVEKHGRHRYYRLADSDAANVIEQLLHIAPKAKVKSLKESKEKKDLHFARTCYDHLAGYVGVQMAHSLVEQGMLKKVDLNFEVTSEGALFFSKLGINEEQQRNKRRAFARCCLDWSERQHHIAGALGNALLVRMLEEEWIVRMPKTRAIRITQSGKIAFEKHLNVKI” as the sequence, how does the “soluble on expression in E. coli” value read?
A: not soluble

Q: With “MSMMDKTVLYFGLVEISFDVPDFIFQKIKEQNNKIRYYSKSINILGSVKFINSNQQFIEYDGNGNILVYGRLKYFKEGISLYYIGEYLAECLLIEHSDTLLIHAAAVYNPLSGHSILLLGDKGAGKTTVAIRLCIEHGYHLIGNDQVIFGSNSGILLTYAGTSFFKIRRTAVLSDNLLFKLFSKFFNRSLQFNKASWDDKISIFPKELGIRTCNFSTEISKIYYIKTDKKEKQIYHSIWSDSLASLYLNELLGRHISGQVACFQSDNGKYFSTMPLINYEKNNRVREQIVKGIFAKQKLFKITAATPAKIAEAIIENVKKNS” as the sequence, how does the “soluble on expression in E. coli” value read?
A: not soluble

Q: Which “soluble on expression in E. coli” value does the source give for “MICFCAERFQWRRLWQIPGDLLFPGPADMARALLYRRPTEPSTIPVRHGSQFFAVRIRRHRRARRYTLRIHPSDREAILTMPPRGTLADAKEFAQRHGAWIAARLGRLPKAAPFLPGTLVPLRGHDHKIVHRTGRGTVWTEVRESGEKILCVAGETEHIERRVLDFLKREARKDLQKACDRYAPELGVKVTRLSIRDQSSRWGSCTSAGSLSFSWRLILAPSYVLDYLAAHEVAHLVEMNHSARFWRVVGKVCPQMERAKTWLDSYGNDLHRYGISDLEHHHHHH” here?
A: soluble

Q: Which “soluble on expression in E. coli” value does the source give for “MNYHSTNVNEIWDACLRILQDIVDERAYRTWFLPIIPVSIEGDTLTLQVPSQFFCEFLEGNFVEQLRTVLGRVIGPNASLQYNALVDNSSPKYPGTVTLAGCADGGQAAEQFDVNLLHRHM” here?
A: not soluble

Q: Which “soluble on expression in E. coli” value does the source give for “MGSDKIHHHHHHMEAKWLEDFLSLADTKSFSRAARHRHLTQSAFSRRIAALETWMDAKLVDRSINPITLTPAGQMFRGLAADILRSMYAARNLVNGYDQFAASDQVVRFAVAHTLVFTLFPEWLKQLNGEVGHVTARVNAVNVPEGVQQLVEGECDLLLGYHHPQLPIVLDPNHFPFVTLGVERILPVSTPDAHGRPVFELPGAPDAPLPLLAYSSGAFLGNVVEMLLLNASESYALHRCFETHMSEALKGMVVAGHGIGWLPESCVAKELAEGSLVRAGSADWITELEIRLYRSARKRGLAAEQLWTYIMNRPRTAADGLVAAEPGAPAVRIARRSVGGSR” here?
A: not soluble
